Assay results published in the supplement of paper PMC11208486.

Test: specific initial activity, cyclohex-2-enone reduction (U mg-1); higher = more active
Experimental: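 Specific initial activity of purified ene reductases with 10 mM cyclohex-2-enone and 0.2 mM NAD(P)H in 50 mM sodium phosphate pH 7.4 with 0-45% (v/v) ethanol or methanol, at set reaction temperatures of 25-45 °C. NAD(P)H depletion was followed at 340 nm for 480 s, in triplicate.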

MNPKYKPLFEPFTFKSGVTINNRIAVAPMTHYASNEDGTISEAELDYIIPRSKEMGMVITACANVTPDGKAFPGQPAIHDDSNIPGLKKLAQAIQAQGAKAVVQIHHGGIECPSELVPQQDVVGPSDVFDNGKQIARALTEEEVENIVKAFGEATRRAIEAGFDGVEIHGANGYLIQQFYSPKTNQRTDRWGGSDEKRLAFPLAIVDEVKKAASEHAKGAFLVGYRLSPEEPETPGLTMTETYTLVDALGDKELDYLHISLMDVNSKARRGADPTRTRMDLLNERVGNKVPLIAVGSIHSADDALAVIENGIPLVAMGREILVDPNWTVKVKEGREKQIETVIKGTDKEKYHLPEPLWQAIVNTQGWVPYKD
specific initial activity
Conditions	co-solvent: ethanol	co-solvent: methanol
co-solvent concentration (% v/v): 0, reaction temperature 25 °C	–	0.66
co-solvent concentration (% v/v): 0, reaction temperature 30 °C	–	0.51
co-solvent concentration (% v/v): 0, reaction temperature 35 °C	–	0.25
co-solvent concentration (% v/v): 0, reaction temperature 40 °C	–	0.12
co-solvent concentration (% v/v): 5, reaction temperature 25 °C	–	0.61
co-solvent concentration (% v/v): 5, reaction temperature 30 °C	–	0.42
co-solvent concentration (% v/v): 5, reaction temperature 35 °C	–	0.2
co-solvent concentration (% v/v): 5, reaction temperature 40 °C	–	0.09
co-solvent concentration (% v/v): 10, reaction temperature 25 °C	–	0.69
co-solvent concentration (% v/v): 10, reaction temperature 30 °C	–	0.41
co-solvent concentration (% v/v): 10, reaction temperature 35 °C	–	0.14
co-solvent concentration (% v/v): 10, reaction temperature 40 °C	–	0.04
co-solvent concentration (% v/v): 15, reaction temperature 25 °C	–	0.65
co-solvent concentration (% v/v): 15, reaction temperature 30 °C	–	0.43
co-solvent concentration (% v/v): 15, reaction temperature 35 °C	–	0.1
co-solvent concentration (% v/v): 15, reaction temperature 40 °C	–	0.02
co-solvent concentration (% v/v): 20, reaction temperature 25 °C	–	0.66
co-solvent concentration (% v/v): 20, reaction temperature 30 °C	–	0.4
co-solvent concentration (% v/v): 20, reaction temperature 35 °C	–	0.1
co-solvent concentration (% v/v): 20, reaction temperature 40 °C	–	0.03
co-solvent concentration (% v/v): 25, reaction temperature 25 °C	–	0.6
co-solvent concentration (% v/v): 25, reaction temperature 30 °C	–	0.4
co-solvent concentration (% v/v): 25, reaction temperature 35 °C	0.08	0.05
co-solvent concentration (% v/v): 25, reaction temperature 40 °C	0.03	0.02
co-solvent concentration (% v/v): 30, reaction temperature 25 °C	0.63	0.55
co-solvent concentration (% v/v): 30, reaction temperature 30 °C	0.44	0.28
co-solvent concentration (% v/v): 30, reaction temperature 35 °C	0.04	0.04
co-solvent concentration (% v/v): 30, reaction temperature 40 °C	0.04	0.03
co-solvent concentration (% v/v): 35, reaction temperature 25 °C	0.45	0.44
co-solvent concentration (% v/v): 35, reaction temperature 30 °C	0.25	0.21
co-solvent concentration (% v/v): 35, reaction temperature 35 °C	0.02	0.02
co-solvent concentration (% v/v): 35, reaction temperature 40 °C	0.04	0.02
co-solvent concentration (% v/v): 40, reaction temperature 25 °C	0.23	0.2
co-solvent concentration (% v/v): 40, reaction temperature 30 °C	0.1	0.11
co-solvent concentration (% v/v): 40, reaction temperature 35 °C	0.04	0.07
co-solvent concentration (% v/v): 40, reaction temperature 40 °C	0.02	0.03
co-solvent concentration (% v/v): 45, reaction temperature 25 °C	0.11	0.04
co-solvent concentration (% v/v): 45, reaction temperature 30 °C	0.06	0.04
co-solvent concentration (% v/v): 45, reaction temperature 35 °C	0	0.04
co-solvent concentration (% v/v): 45, reaction temperature 40 °C	0.04	0.05
